# Results taken from US20240190989A1 (BEIGENE SWITZERLAND, published 2024).
# “And” between values parts separate entries of the source, which are not always exact repeats. Equal values may be shown once.
# T1: full-length human CEA on cells (MKN45, LOVO, L929/huCEA, CT26/CEA, CT26-OS8-CEA) (human, UniProt P06731 35-685)
# T1 construct: also called CEACAM5; native CEA
# T1 sequence: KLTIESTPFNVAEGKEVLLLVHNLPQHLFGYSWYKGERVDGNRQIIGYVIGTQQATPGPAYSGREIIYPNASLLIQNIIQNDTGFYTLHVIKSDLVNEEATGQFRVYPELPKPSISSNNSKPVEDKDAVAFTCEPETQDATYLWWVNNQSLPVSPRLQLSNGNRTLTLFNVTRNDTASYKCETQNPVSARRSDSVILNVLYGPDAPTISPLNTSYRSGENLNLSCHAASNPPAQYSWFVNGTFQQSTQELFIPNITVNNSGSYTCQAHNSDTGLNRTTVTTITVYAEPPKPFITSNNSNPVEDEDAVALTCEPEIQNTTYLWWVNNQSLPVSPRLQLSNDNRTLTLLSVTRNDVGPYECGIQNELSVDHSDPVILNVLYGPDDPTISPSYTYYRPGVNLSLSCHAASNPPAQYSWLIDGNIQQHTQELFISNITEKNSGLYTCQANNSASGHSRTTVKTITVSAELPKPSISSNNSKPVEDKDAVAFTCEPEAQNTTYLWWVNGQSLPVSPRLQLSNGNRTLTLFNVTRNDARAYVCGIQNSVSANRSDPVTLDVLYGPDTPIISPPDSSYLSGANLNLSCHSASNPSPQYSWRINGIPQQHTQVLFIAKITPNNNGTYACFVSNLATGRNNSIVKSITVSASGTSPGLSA
# T2: soluble human CEA, amino acids 1-687 of huCEA with C-terminal 6xHis tag (human, UniProt P06731 35-687)
# T2 construct: also called sCEA; soluble huCEA
# T2 sequence: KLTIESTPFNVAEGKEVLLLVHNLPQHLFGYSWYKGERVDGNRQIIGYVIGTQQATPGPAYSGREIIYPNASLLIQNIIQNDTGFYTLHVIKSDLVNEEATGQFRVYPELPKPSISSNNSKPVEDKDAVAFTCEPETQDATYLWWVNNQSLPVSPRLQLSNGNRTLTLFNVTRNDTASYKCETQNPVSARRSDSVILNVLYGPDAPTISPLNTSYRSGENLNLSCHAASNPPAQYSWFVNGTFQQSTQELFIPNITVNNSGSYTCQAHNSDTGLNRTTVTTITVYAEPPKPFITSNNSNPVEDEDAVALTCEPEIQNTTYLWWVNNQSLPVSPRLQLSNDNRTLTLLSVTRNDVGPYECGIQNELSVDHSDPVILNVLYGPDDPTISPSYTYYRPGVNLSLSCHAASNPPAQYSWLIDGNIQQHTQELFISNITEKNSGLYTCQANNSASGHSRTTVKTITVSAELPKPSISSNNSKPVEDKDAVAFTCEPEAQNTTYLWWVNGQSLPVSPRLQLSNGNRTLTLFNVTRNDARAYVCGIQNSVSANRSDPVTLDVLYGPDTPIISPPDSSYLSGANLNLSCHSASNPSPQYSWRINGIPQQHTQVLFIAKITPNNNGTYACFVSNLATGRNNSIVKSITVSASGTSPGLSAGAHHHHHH
# How the values were obtained:
# [1] = target: T1, full-length human CEA on cells (MKN45, …); assay: FACS on CT26-OS8-CEA cells
# [2] = target: T2, soluble human CEA, amino acids 1-687 of …; assay: SPR, Human CEA
# [3] = target: T2, soluble human CEA, amino acids 1-687 of …; assay: antigen ELISA on huCEA (CEA/His), two batches of BE-146 [panel A]
binder,measurement,setting,value
"BE-146 (CEAxCD137 multispecific antibody) (bispecific antibody, human IgG1, kappa, Module ratio 2:2, Fc null version of huIgG1; copies: 2 + 2) heavy: QVQLVQSGAEVKKPGASVKVSCKASGYIFTSYYLHWVRQAPGQGLEWIGYINPQTGKTSYAQKFQGRVTMTRDTSTSTVYMELSSLRSEDTAVYYCAREYGNYNYPLDYWGQGTLVTVSSASTKGPSVFPLAPSSKSTSGGTAALGCLVKDYFPEPVTVSWNSGALTSGVHTFPAVLQSSGLYSLSSVVTVPSSSLGTQTYICNVNHKPSNTKVDKKVEPKSCDKTHTCPPCPAPPAAGPSVFLFPPKPKDTLMISRTPEVTCVVVDVSHEDPEVKFNWYVDGVEVHNAKTKPREEQYNSTYRVVSVLTVLHQDWLNGKEYKCKVSNKALAAPIEKTISKAKGQPREPQVYTLPPSREEMTKNQVSLTCLVKGFYPSDIAVEWESNGQPENNYKTTPPVLDSDGSFFLYSKLTVDKSRWQQGNVFSCSVMHEALHNHYTQKSLSLSPGKGGGGSEVQLLESGGGLVQPGGSLRLSCAASGFTVSAEDVGWVRQAPGKGLEWVSAILDKGGSTYYAESVKGRFTISRDNAKNTLYLQMSSLRAEDTAVYYCARIVYHAGGGVTFDTRGQGTQVTVSS light: DIQMTQSPSSLSASVGDRVTITCRASENQYGYLAWYQQKPGKVPKLLIYNYKNLVEGVPSRFSGSGSGTDFTLTISSLQPEDVATYYCQHHLGTPYTFGQGTKVEIKRTVAAPSVFIFPPSDEQLKSGTASVVCLLNNFYPREAKVQWKVDNALQSGNSQESVTEQDSKDSTYSLSSTLTLSKADYEKHKVYACEVTHQGLSSPVTKSFNRGEC",EC50,[1],1.53 µg/mL and 8.75 nM
same,Kd,[2],3 nM
same,koff,[2],0.000295 s⁻¹
same,kon,[2],98500 M⁻¹ s⁻¹
same,EC50 (read off the curve),[3],~70 ng/mL
